Reference: patent publication US20260258158A1 (Janssen / Centocor, published 2026)

Biological target: T1, Biotinylated Human CD3 epsilon&CD3 delta Heterodimer Protein, His, Avitag&Tag Free (AcroBiosystems) (human, UniProt P07766 23-126; P04234 22-105)
T1 construct: also called cluster of differentiation 3 (CD3); soluble CD3 antigen
Assay: BLI, biotinylated CD3 epsilon/delta on the tip, antibody as analyte (FIG. 24C)
Excerpt: In the BLI assay for CD3, due to nonspecific binding from the soluble CD3 antigen (Biotinylated Human CD3 epsilon&CD3 delta Heterodimer Protein, His, Avitag™&Tag Free from AcroBiosystems), the assay was reversed, i.e., immobilizing the antigen to the tip and using the bispecific antibodies as the analyte.

T1 sequence (P07766 23-126, stated change not applied, chain 1 of 2): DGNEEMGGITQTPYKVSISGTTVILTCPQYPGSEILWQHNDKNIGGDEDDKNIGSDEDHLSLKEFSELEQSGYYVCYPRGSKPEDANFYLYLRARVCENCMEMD
T1 sequence (P04234 22-105, stated change not applied, chain 2 of 2): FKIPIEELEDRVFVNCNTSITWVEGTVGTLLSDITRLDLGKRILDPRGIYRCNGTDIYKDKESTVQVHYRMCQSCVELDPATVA

B1: HLPPB423 (bispecific antibody, human IgG1, kappa)
heavy 1: not shown
light 1: not shown
heavy 2: EVQLVESGGGLVQPGGSLRLSCAASGYSFTGYTMNWVRQAPGKGLEWVALINPYKGVSTYNQKFKDRFTISVDKSKNTAYLQMNSLRAEDTAVYYCARSGYYGDSDWYFDVWGQGTLVTVSSASTKGPSVFPLAPSSKSTSGGTAALGCLVKDYFPEPVTVSWNSGALTSGVHTFPAVLQSSGLYSLSSVVTVPSSSLGTQTYICNVNHKPSNTKVDKKVEPKSCDKTHTCPPCPAPELLGGPSVFLFPPKPKDTLMISRTPEVTCVVVDVSHEDPEVKFNWYVDGVEVHNAKTKPREEQYNSTYRVVSVLTVLHQDWLNGKEYKCKVSNKALPAPIEKTISKAKGQPREPQVYTLPPSREEMTKNQVSLSCAVKGFYPSDIAVEWESNGQPENNYKTTPPVLDSDGSFFLVSKLTVDKSRWQQGNVFSCSVMHEALHNRFTQKSLSLSPGK
light 2: not shown
Question: Does B1 bind?
Answer: Result: binds
